According to patent US6252057:

Biological target: PP1C in 3T3-L1 adipocyte lysates (mouse (endogenous in 3T3-L1 adipocytes))
Assay: GST-PTG added to 3T3-L1 adipocyte lysates, fractionation, PP1 activity in the glycogen pellet

fold increase in the PP1 activity sedimenting with the glycogen pellet: 8 fold
Substance: GST-PTG fusion protein
